T1: GST-fusion protein containing amino acids 696-902 of human cdc4
T1 sequence: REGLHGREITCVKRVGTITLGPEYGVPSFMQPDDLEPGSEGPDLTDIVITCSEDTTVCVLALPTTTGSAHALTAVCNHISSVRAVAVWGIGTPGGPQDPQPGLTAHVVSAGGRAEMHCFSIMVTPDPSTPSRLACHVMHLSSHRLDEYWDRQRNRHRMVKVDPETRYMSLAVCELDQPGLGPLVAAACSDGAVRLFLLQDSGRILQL


Assays:
[1] = system: T1, GST-fusion protein containing amino acids 696-902 of human cdc4
[2] = target: T2, human p19 skp1, expressed as a LexA fusion protein from vector pBTM116 (human, UniProt P63208 1-163, limits assumed); assay: yeast two-hybrid (LexA-skp1 bait, mouse cDNA-VP16 library)
T2 construct: Bait of the yeast two-hybrid screen in S. cerevisiae L40; also called human skp1
Experimental: A full length cDNA encoding a mouse homolog of yeast cdc4 protein was cloned through its ability to specifically interact with human p19 skp1 in a yeast two hybrid system. Briefly, human skp1 was cloned into the vector pBTM116 for expression as a LexA fusion protein. This construct was transformed into S. Cerevisiae strain L40 (MATa his3 200 trp1-900 leu2-3,112 ade LYS2::lexAop)₄-HIS3 URA3::(lexAop)₈-lacZ GAL4). Skp1 interacting clones were selected in the presence of 1 mM 3-aminotriazole after transformation of a mouse cDNA-VP16 fusion library. Specificity of the interacting clones was assessed with the D. Melanogaster daughterless gene.

T2 sequence (P63208 whole entry, the tested form may be a part): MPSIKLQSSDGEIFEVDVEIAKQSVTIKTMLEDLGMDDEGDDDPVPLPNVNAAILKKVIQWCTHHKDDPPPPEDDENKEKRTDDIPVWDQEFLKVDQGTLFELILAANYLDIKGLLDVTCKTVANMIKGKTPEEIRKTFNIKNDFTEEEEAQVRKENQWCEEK

Molecule	in vitro ubiquitination reaction (E1, E2, biotinylated ubiquitin; streptavidin-HRP after non-reducing SDS-PAGE) [1]	binding result [2]
UBC2	though to a lesser extent, UBC2	
UBC4	cdc4 polypeptide was found to be ubiquitinated by UBC4	
mouse cdc4 (clone from a mouse cDNA-VP16 fusion library; 486 base pair fragment) (other, not shown: large carriers, VP16 is placed first from knowledge of such libraries; also called mu-cdc4; mcdc4) TFTHEAPNQRRRLILCSAATDGSLAFWDLTTAMDKGSTTLELPAHPGLPYQMGTPSMTVQAHSCGVNSLHTLPTPEGHHLVASGSEDGSLHVFTLAVKMPEPEEADGEAELVPQLCVLEEYSVPCAHAAHVTGVKILSPKLMVSASIDQRLTFWRLGQGEPP		binds

Source: patent US20020025569A1 (GPC BIOTECH, published 2002)
